From publication PMC8575140 (bioRxiv, 2021)

Target: SARS-CoV-2 receptor-binding domain (SARS-CoV-2, UniProt P0DTC2)

B1: NCI-CoV-1B5 VHH (VHH)
VHH: DVQLVESGGGSVQAGGSLRLSCTGSRYTYSTYCMGWFRQAPGKEEEAVAIINSGGGEPYYGDSVKGRFTISQDRAKNTVYLQMDGLQPDDTAIYYCVAADSHNSRCYLGRSYVNYWGQGTQVTVSS
B1 gave an IC50 of 3.2 nM.
